Values joined by “and” are separate entries in the source; they are usually repeats but may differ in a detail not shown here. Equal entries are not always repeated.
Conditions: Bos taurus, pH 7, 25 °C, CD, MOPS 30 mM, reversible: yes (partial), whole UniProt chain shown

B1: Cytochrome b5 wild type, P00171 (protein)
chain: MAEESSKAVKYYTLEEIQKHNNSKSTWLILHYKVYDLTKFLEEHPGGEEVLREQAGGDATENFEDVGHSTDARELSKTFIIGELHPDDRSKITKPSESIITTIDSNPSWWTNWLIPAISALFVALIYHLYTSEN
- denaturant midpoint (higher = more stable) (GdnHCl): 1.27 M
- unfolding free energy (GdnHCl): 3.2 kcal/mol
- denaturant midpoint (higher = more stable) (GdnSCN): 1.52 M and 2.04 M

Reference: FireProtDB (doi:10.1093/protein/gzi067)
